Results taken from article PMC11997252.

B1: Fzd4: N59/144Q (protein)
parent chain: MAWRGAGPSVPGAPGGVGLSLGLLLQLLLLLGPARGFGDEEERRCDPIRISMCQNLGYNVTKMPNLVGHELQTDAELQLTTFTPLIQYGCSSQLQFFLCSVYVPMCTEKINIPIGPCGGMCLSVKRRCEPVLKEFGFAWPESLNCSKFPPQNDHNHMCMEGPGDEEVPLPHKTPIQPGEECHSVGTNSDQYIWVKRSLNCVLKCGYDAGLYSRSAKEFTDIWMAVWASLCFISTAFTVLTFLIDSSRFSYPERPIIFLSMCYNIYSIAYIVRLTVGRERISCDFEEAAEPVLIQEGLKNTGCAIIFLLMYFFGMASSIWWVILTLTWFLAAGLKWGHEAIEMHSSYFHIAAWAIPAVKTIVILIMRLVDADELTGLCYVGNQNLDALTGFVVAPLFTYLVIGTLFIAAGLVALFKIRSNLQKDGTKTDKLERLMVKIGVFSVLYTVPATCVIACYFYEISNWALFRYSADDSNMAVEMLKIFMSLLVGITSGMWIWSAKTLHTWQKCSNRLVNSGKVKREKRGNGWVKPGKGSETVV
B2: Fzd4: N59Q (protein)
parent chain: MAWRGAGPSVPGAPGGVGLSLGLLLQLLLLLGPARGFGDEEERRCDPIRISMCQNLGYNVTKMPNLVGHELQTDAELQLTTFTPLIQYGCSSQLQFFLCSVYVPMCTEKINIPIGPCGGMCLSVKRRCEPVLKEFGFAWPESLNCSKFPPQNDHNHMCMEGPGDEEVPLPHKTPIQPGEECHSVGTNSDQYIWVKRSLNCVLKCGYDAGLYSRSAKEFTDIWMAVWASLCFISTAFTVLTFLIDSSRFSYPERPIIFLSMCYNIYSIAYIVRLTVGRERISCDFEEAAEPVLIQEGLKNTGCAIIFLLMYFFGMASSIWWVILTLTWFLAAGLKWGHEAIEMHSSYFHIAAWAIPAVKTIVILIMRLVDADELTGLCYVGNQNLDALTGFVVAPLFTYLVIGTLFIAAGLVALFKIRSNLQKDGTKTDKLERLMVKIGVFSVLYTVPATCVIACYFYEISNWALFRYSADDSNMAVEMLKIFMSLLVGITSGMWIWSAKTLHTWQKCSNRLVNSGKVKREKRGNGWVKPGKGSETVV
B3: Fzd4: N144Q (protein)
parent chain: MAWRGAGPSVPGAPGGVGLSLGLLLQLLLLLGPARGFGDEEERRCDPIRISMCQNLGYNVTKMPNLVGHELQTDAELQLTTFTPLIQYGCSSQLQFFLCSVYVPMCTEKINIPIGPCGGMCLSVKRRCEPVLKEFGFAWPESLNCSKFPPQNDHNHMCMEGPGDEEVPLPHKTPIQPGEECHSVGTNSDQYIWVKRSLNCVLKCGYDAGLYSRSAKEFTDIWMAVWASLCFISTAFTVLTFLIDSSRFSYPERPIIFLSMCYNIYSIAYIVRLTVGRERISCDFEEAAEPVLIQEGLKNTGCAIIFLLMYFFGMASSIWWVILTLTWFLAAGLKWGHEAIEMHSSYFHIAAWAIPAVKTIVILIMRLVDADELTGLCYVGNQNLDALTGFVVAPLFTYLVIGTLFIAAGLVALFKIRSNLQKDGTKTDKLERLMVKIGVFSVLYTVPATCVIACYFYEISNWALFRYSADDSNMAVEMLKIFMSLLVGITSGMWIWSAKTLHTWQKCSNRLVNSGKVKREKRGNGWVKPGKGSETVV

Columns and labels:
Details in all cases: glycan lost; control: Fzd4 WT
[1] = SNAP-tag staining with membrane-impermeant dye
[2] = immunofluorescence co-localisation with ER marker CANX
[3] = plasma membrane fractionation, Western blot
[4] = cycloheximide chase, Western blot, HEK293T
[5] = surface biotinylation, streptavidin pull-down, HEK293T

Row | Protein | localisation_or_trafficking [1] | localisation_or_trafficking [2] | localisation_or_trafficking [3] | degradation_or_half_life [4] | localisation_or_trafficking [5]
1 | B1 | abolishes | changes | abolishes | decreases | abolishes
2 | B2 | abolishes | – | abolishes | decreases | abolishes
3 | B3 | abolishes | – | abolishes | decreases | abolishes
